Measurements reported in the supplement of paper PMC10126150.
± gives the standard deviation of the averaged measurements.

Test system: ATP
Assay: switch fluorescence ratio, 500 uM ATP over buffer (Cy3 cluster intensity, sum of 5 cycles each) (fold (ratio)); higher = stronger signal-on switching upon ATP binding; sequences stand for … in TCGTCGGCAGCGTCAGATGTGTATAAGAGACAGTTTTTTTTTTTTTTTTTTTTTTTTT…TC
Conditions: aptamer strand: ATP DNA aptamer (quencher-CACCTGGGGGAGTATTGCGGAGGAAGG + anchor), 100 nM annealed; ATP concentration: 500 uM
In short: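 Clusters with intensities outside 100-1000 RFU were excluded. The remaining Cy3-labelled switching-strand clusters on a modified Illumina MiSeq flow-cell had been annealed to 100 nM quencher-labelled ATP aptamer and imaged in selection buffer, then after 15 min with 500 uM ATP at 22 °C, for five cycles separated by NaOH stripping and re-annealing. The fluorescence ratio, averaged per switch-domain sequence, is each cluster's summed target-cycle Cy3 intensity over its summed buffer-cycle Cy3 intensity.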
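Further: ATP exposure 15 min at 22 °C before imaging.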

Row | Sequence | switch fluorescence ratio
1 | GACTTATTGG | 1.02 ± 0.032
2 | GACTTATTTA | 1.01 ± 0.043
3 | GACTTGCTGA | 1 ± 0.049
4 | GACTTGGTGC | 1.06 ± 0.023
5 | GACTTTGGGG | 1 ± 0.013
6 | GACTTTGTTC | 0.983 ± 0.012
7 | GACTTTTATT | 0.989 ± 0.017
8 | GACTTTTGTA | 0.9812 ± 0.0045
9 | GACTTTTTGC | 0.933 ± 0.055
10 | GACTTTTTTC | 0.9748 ± 0.0053
11 | GAGAAAATCG | 1 ± 0.043
12 | GAGAAAATGG | 1.003 ± 0.0039
13 | GAGAAATGGG | 1.07 ± 0.038
14 | GAGAAATTCC | 1.07 ± 0.021
15 | GAGAACAGTG | 1.02 ± 0.041
16 | GAGAACGAGG | 0.983 ± 0.023
17 | GAGAAGAGGC | 1.13 ± 0.023
18 | GAGAAGCGGT | 1.004 ± 0.008
19 | GAGAAGCTAT | 0.987 ± 0.015
20 | GAGAAGGGCA | 1.02 ± 0.05
21 | GAGAAGTTAG | 1.02 ± 0.023
22 | GAGAAGTTGA | 1 ± 0.02
23 | GAGAATTAGG | 0.964 ± 0.039
24 | GAGACATTAC | 1.61 ± 0.04
25 | GAGACCAATC | 1.023 ± 0.008

Row | Sequence | switch fluorescence ratio
26 | GAGACCCTAT | 1.029 ± 0.0074
27 | GAGACGACCA | 1.15 ± 0.029
28 | GAGACGCTTA | 1.069 ± 0.0064
29 | GAGACGTTTT | 0.97 ± 0.015
30 | GAGAGAGGGA | 1.01 ± 0.034
31 | GAGAGATCG | 0.982 ± 0.021
32 | GAGAGATTAT | 0.9787 ± 0.002
33 | GAGAGCCGTC | 1.08 ± 0.13
34 | GAGAGCGAGT | 1.03 ± 0.036
35 | GAGAGCTATA | 1.07 ± 0.044
36 | GAGAGCTCAC | 1.01 ± 0.021
37 | GAGAGGACAT | 0.996 ± 0.011
38 | GAGAGGGAAG | 1.004 ± 0.0077
39 | GAGAGGGCAG | 0.9869 ± 0.0072
40 | GAGAGGGCCT | 0.985 ± 0.038
41 | GAGAGGTTCG | 0.962 ± 0.012
42 | GAGAGGTTTG | 0.9818 ± 0.008
43 | GAGAGTAGAG | 0.992 ± 0.034
44 | GAGAGTATAT | 1.01 ± 0.012
45 | GAGAGTGACT | 0.969 ± 0.0083
46 | GAGAGTGGGC | 1 ± 0.043
47 | GAGAGTGGTT | 0.998 ± 0.012
48 | GAGAGTTAAG | 0.9677 ± 0.0074
49 | GAGATAGAGG | 1.006 ± 0.0087
50 | GAGATAGGGG | 0.994 ± 0.016

Row | Sequence | switch fluorescence ratio
51 | GAGATAGGGT | 1.03 ± 0.013
52 | GAGATCCATG | 1.01 ± 0.038
53 | GAGATCGGGG | 1 ± 0.03
54 | GAGATCGTAT | 0.991 ± 0.017
55 | GAGATCGTGC | 0.96 ± 0.018
56 | GAGATGGAAG | 0.993 ± 0.018
57 | GAGATGGGCA | 1.01 ± 0.06
58 | GAGATGGTTT | 0.997 ± 0.024
59 | GAGATGTTTA | 0.987 ± 0.029
60 | GAGATTAATT | 0.967 ± 0.016
61 | GAGATTCGCC | 1.02 ± 0.054
62 | GAGATTGCAG | 0.974 ± 0.069
63 | GAGATTGCGC | 1.02 ± 0.046
64 | GAGATTGGAG | 0.9892 ± 0.0044
65 | GAGCAGGGGG | 1.01 ± 0.042
66 | GAGCATAGTT | 1.03 ± 0.014
67 | GAGCATGGGA | 1.02 ± 0.012
68 | GAGCCATTTT | 0.991 ± 0.041
69 | GAGCCGGGTA | 0.9982 ± 0.0063
70 | GAGCCTTACT | 1.38 ± 0.26
71 | GAGCGAAAGG | 0.991 ± 0.025
72 | GAGCGAGCTC | 0.988 ± 0.021
73 | GAGCGGCTTC | 1.027 ± 0.0097
74 | GAGCGGGGGG | 0.969 ± 0.022
75 | GAGCGGGGTG | 1 ± 0.021

Row | Sequence | switch fluorescence ratio
76 | GAGCGTAGGG | 0.9537 ± 0.0089
77 | GAGCGTCACG | 1.006 ± 0.0055
78 | GAGCTAAGTT | 0.992 ± 0.012
79 | GAGCTCTTAT | 1 ± 0.038
80 | GAGCTGCGGG | 1.002 ± 0.0021
81 | GAGCTGGGCG | 0.969 ± 0.13
82 | GAGCTGGGTC | 1.02 ± 0.071
83 | GAGCTGTGGG | 0.971 ± 0.039
84 | GAGCTTGTGG | 1.03 ± 0.015
85 | GAGGAAAAGT | 0.997 ± 0.051
86 | GAGGAAAGCA | 0.9815 ± 0.0056
87 | GAGGAAATCA | 0.9877 ± 0.008
88 | GAGGAGCTGG | 0.986 ± 0.051
89 | GAGGAGCTGT | 0.999 ± 0.026
90 | GAGGAGGAAT | 1.01 ± 0.017
91 | GAGGAGGGGT | 0.989 ± 0.039
92 | GAGGATAGGG | 0.9768 ± 0.0037
93 | GAGGATAGGT | 0.98 ± 0.011
94 | GAGGATGGCA | 0.9807 ± 0.0061
95 | GAGGATTCAT | 1.04 ± 0.085
96 | GAGGATTTCA | 0.99698 ± 0.00049
97 | GAGGCATTGT | 1.05 ± 0.017
98 | GAGGCGACTG | 1.03 ± 0.031
99 | GAGGCTACTG | 0.9901 ± 0.0082
100 | GAGGCTAGTT | 0.9936 ± 0.0047

Row | Sequence | switch fluorescence ratio
101 | GAGGCTGGGT | 0.988 ± 0.0081
102 | GAGGGAAATG | 0.997 ± 0.098
103 | GAGGGAACAG | 1.01 ± 0.013
104 | GAGGGACAAT | 0.9882 ± 0.0066
105 | GAGGGACCGT | 0.995 ± 0.025
106 | GAGGGACGAG | 1.05 ± 0.015
107 | GAGGGACTGT | 0.972 ± 0.026
108 | GAGGGATAGC | 0.991 ± 0.025
109 | GAGGGCAGAC | 1.24 ± 0.075
110 | GAGGGCCTTT | 0.968 ± 0.048
111 | GAGGGCGTCA | 0.995 ± 0.027
112 | GAGGGGAACT | 0.995 ± 0.021
113 | GAGGGGAAGA | 0.998 ± 0.031
114 | GAGGGGAGGA | 1.04 ± 0.014
115 | GAGGGGAGTA | 1 ± 0.033
116 | GAGGGGATAT | 1.38 ± 0.59
117 | GAGGGGATCG | 0.967 ± 0.015
118 | GAGGGGATGA | 1.01 ± 0.031
119 | GAGGGGCCTC | 1.03 ± 0.037
120 | GAGGGGGAAA | 1.02 ± 0.031
121 | GAGGGGGAAG | 1 ± 0.049
122 | GAGGGGGGTG | 1 ± 0.028
123 | GAGGGGGTCC | 1.03 ± 0.069
124 | GAGGGGTATC | 0.96 ± 0.045
125 | GAGGGGTTAC | 1.01 ± 0.05

Row | Sequence | switch fluorescence ratio
126 | GAGGGGTTGC | 1.09 ± 0.047
127 | GAGGGGTTTA | 1 ± 0.027
128 | GAGGGTAAGA | 1.02 ± 0.062
129 | GAGGGTCTCT | 0.98005 ± 0.00068
130 | GAGGGTTCGA | 0.987 ± 0.033
131 | GAGGGTTTTA | 1 ± 0.016
132 | GAGGTACGCG | 1.026 ± 0.0062
133 | GAGGTAGGTC | 0.9945 ± 0.0019
134 | GAGGTATTGG | 1.01 ± 0.022
135 | GAGGTCAGTG | 0.974 ± 0.019
136 | GAGGTGCTGA | 1 ± 0.061
137 | GAGGTGTGAC | 1.01 ± 0.039
138 | GAGGTTCAGT | 0.989 ± 0.011
139 | GAGGTTCGCT | 0.979 ± 0.069
140 | GAGGTTGCGG | 0.96 ± 0.036
141 | GAGGTTGGGA | 1.01 ± 0.012
142 | GAGGTTTATA | 0.984 ± 0.043
143 | GAGGTTTGGG | 0.982 ± 0.035
144 | GAGGTTTTTT | 0.987 ± 0.021
145 | GAGTAACCAG | 0.979 ± 0.036
146 | GAGTAAGATT | 1.02 ± 0.025
147 | GAGTAATGGG | 1.003 ± 0.0098
148 | GAGTACCGAA | 0.969 ± 0.031
149 | GAGTACTAGA | 1.02 ± 0.018
150 | GAGTAGGGGG | 0.993 ± 0.033

Row | Sequence | switch fluorescence ratio
151 | GAGTATAATA | 0.997 ± 0.025
152 | GAGTATACGT | 1.022 ± 0.0048
153 | GAGTCAGGGT | 1.02 ± 0.011
154 | GAGTCCGTAC | 1.31 ± 0.017
155 | GAGTCGAGAG | 0.99 ± 0.033
156 | GAGTCTGTCC | 1.019 ± 0.0035
157 | GAGTGACTCG | 1.01 ± 0.014
158 | GAGTGAGGTT | 0.955 ± 0.046
159 | GAGTGATGTT | 0.979 ± 0.012
160 | GAGTGCATTG | 1.01 ± 0.015
161 | GAGTGCCGGT | 1.02 ± 0.023
162 | GAGTGCGTCG | 1.01 ± 0.16
163 | GAGTGCTAAA | 1.01 ± 0.0053
164 | GAGTGCTTGG | 0.973 ± 0.022
165 | GAGTGGGCGG | 0.996 ± 0.071
166 | GAGTGGTTAG | 0.9884 ± 0.0017
167 | GAGTGTGAAA | 0.978 ± 0.035
168 | GAGTGTGGGC | 1.01 ± 0.099
169 | GAGTGTTAGG | 0.996 ± 0.013
170 | GAGTGTTGGT | 1 ± 0.022
171 | GAGTTAAAGT | 1.01 ± 0.014
172 | GAGTTCACGT | 1.04 ± 0.013
173 | GAGTTCAGGT | 1.01 ± 0.019
174 | GAGTTCTTG | 0.986 ± 0.023
175 | GAGTTGAATT | 0.993 ± 0.046

Row | Sequence | switch fluorescence ratio
176 | GAGTTGCTTA | 1.006 ± 0.01
177 | GAGTTGGGGA | 1 ± 0.036
178 | GAGTTGTCGA | 0.994 ± 0.022
179 | GAGTTGTTGG | 0.968 ± 0.024
180 | GAGTTTAGAT | 0.994 ± 0.018
181 | GAGTTTAGCG | 0.982 ± 0.025
182 | GAGTTTCGTG | 0.965 ± 0.01
183 | GATAAAAGTT | 1.02 ± 0.066
184 | GATAAAGATA | 1.02 ± 0.043
185 | GATAAAGGGT | 1.005 ± 0.0052
186 | GATAAAGTTA | 0.992 ± 0.013
187 | GATAAATGAT | 1 ± 0.02
188 | GATAACATAC | 1.368 ± 0.0047
189 | GATAACGAAG | 1.008 ± 0.006
190 | GATAAGGAAC | 0.9788 ± 0.0072
191 | GATAAGTTGG | 0.935 ± 0.09
192 | GATAATAAGT | 1.01 ± 0.016
193 | GATAATAATT | 0.9969 ± 0.0091
194 | GATAATAGTG | 1.08 ± 0.073
195 | GATAATATGG | 0.9814 ± 0.0094
196 | GATAATATTT | 0.986 ± 0.011
197 | GATAATCGAG | 1.02 ± 0.018
198 | GATAATGAAC | 1.02 ± 0.02
199 | GATAATTTCT | 0.9886 ± 0.0046
200 | GATACACATG | 1.04 ± 0.021
